# Source: publication PMC10519987
# Tests used:
# [1] = molecular target: carboxy-terminal domain of Saccharomyces cerevisiae RNA polymerase II subunit RPB1 (yCTD) (Saccharomyces cerevisiae); experiment: dynamic light scattering + microscopy; tag-free CTD alone, no crowding agents; 25 mM HEPES, 1.0 mM TCEP, pH 7.4 (also pH 6.2), 50-1000 mM NaCl, rising temperature; self-coacervation into droplets
# [2] = molecular target: carboxy-terminal domain of human RNA polymerase II subunit RPB1 (hCTD) (human) (UniProt P24928); experiment: as above
Substance,minimal concentration of droplet formation [1] [µM],minimal concentration of droplet formation [2] [µM]
carboxy-terminal domain of Saccharomyces cerevisiae RNA polymerase II subunit RPB1 (yCTD) (domain or fragment),100,–
carboxy-terminal domain of human RNA polymerase II subunit RPB1 (hCTD) (from UniProt P24928 1593-1970) (domain or fragment),–,25
